Measurements reported in patent US20150284450A1, “COMBINATION THERAPIES USING ANTI-PSEUDOMONAS PSL AND PCRV BINDING MOLECULES” (priority 2012, published 2015).

Tests used:
P. aeruginosa 6294 (O6) = test: Acute pneumonia model in mice, strain 6294; assay type: in vivo, Pseudomonas aeruginosa; details: for Overall Impression, lung histology: BALB/c mice
Protocol: (§1) Antibodies or PBS were administered 24 hours before infection in each model. P. aeruginosa acute pneumonia, keratitis, and thermal injury infection models were performed as described (DiGiandomenico, A., et al., Proc Natl Acad Sci USA 104, 4624-4629 (2007)), with modifications. In the acute pneumonia model, BALB/c mice (The Jackson Laboratory) were infected with P. aeruginosa strains suspended in a 0.05 ml inoculum. In the thermal injury model, CF-1 mice (Charles River) received a 10% total body surface area burn with a metal brand heated to 92° C. for 10 seconds. Animals were infected subcutaneously with P. aeruginosa strain 6077 at the indicated dose. For organ burden experiments, acute pneumonia was induced in mice followed by harvesting of lungs, spleens, and kidneys 24 hours post-infection for determination of CFU.

[1] = test system: P. aeruginosa 6077 (exoU+); test: Rabbit red blood cell lysis inhibition assay with strain 6077; assay type: cell-based, Pseudomonas aeruginosa; details: FIG. 12F
Protocol: Percent inhibition of cytotoxicity analysis was analysed for the parental V2L2 mAb, mAb166 (positive control) and R347 (negative control), where the antibodies were administered to cultured broncho-epithelial cell line A549 combined with log-phase P. aeruginosa strain 6077 (exoU+) at a MOI of approximately 10. A549 lysis was assayed by measuring released lactate dehydrogenase (LDH) activity and lysis in the presence of mAbs was compared to wells without mAb to determine percent inhibition. The V2L2 mAb, mAb166 (positive control) and R347 (negative control) were evaluated for their ability to prevent lysis of RBCs, where the antibodies were mixed with log-phase P. aeruginosa 6077 (exoU^+) and washed rabbit red blood cells (RBCs) and incubated for 2 hours at 37°. Intact RBCs were pelleted and the extent of lysis determined by measuring the OD405 of the cell-free supernatant. Lysis in the presence of anti-PcrV mAbs was compared to wells without mAb to determine percent inhibition.

[2] = test system: P. aeruginosa PA103A (O11); test: Acute pneumonia model in mice, strain PA103A; assay type: in vivo, Pseudomonas aeruginosa; details: V2L2 0.04-5 mg/kg, FIG. 13I
Protocol: as §1
The in vivo effect of administration of an anti-PcrV antibodies was studied in mice using an acute pneumonia model. Groups of mice were treated with either increasing concentrations of the V2L2 antibody, a positive control anti-PcrV antibody (mAb166), or a negative control (R347), as shown in FIG. 13 (A-B). Groups of mice were also treated with either increasing concentrations of the V2L2 antibody, the PcrV antibody PcrV-02, or a negative control (R347), as shown in FIG. 13 (C-D). […]

[3] = test system: P. aeruginosa 6206 (O11-ExoU+); test: Acute pneumonia model in mice, strain 6206; assay type: in vivo, Pseudomonas aeruginosa
Protocol: as §1

[4] = test system: P. aeruginosa 6077 (O11, cytotoxic); test: Acute pneumonia model in mice, strain 6077; assay type: in vivo, Pseudomonas aeruginosa; details: IP 24 h prior to intranasal 6077 (1×10^6 CFU/animal); FIG. 13E-G
Protocol: as §1

[5] = 1.33×10^7 CFU 6294, 0.2 mg/kg (combination 0.1 mg/kg ea), Table 6A
[6] = 1.7×10^7 CFU 6294, 0.2 mg/kg (combination 0.1 mg/kg ea), Table 6B
[7] = 5.25×10^5 cfu 6206, single antibody: R347 2.1 mg/kg, V2L2 0.1 mg/kg, WapR-004 0.5 mg/kg, Table 5
[8] = 9.25×10^5 CFU 6206, 0.2 mg/kg (combination 0.1 mg/kg ea), Table 7
[9] = V2L2 0.07-5 mg/kg, intranasal 6206, FIG. 14A-B

B1: V2L2: anti-PcrV monoclonal antibody, epitope class 4; VH SEQ ID NO: 216, VL SEQ ID NO: 217 (antibody, V domains shown)
VH: EMQLLESGGGLVQPGGSLRLSCAASGFTFSSYAMNWVRQAPGEGLEWVSAITISGITAYYTDSVKGRFTISRDNSKNTLYLQMNSLRAGDTAVYYCAKEEFLPGTHYYYGMDVWGQGTTVTVSS
VL: AIQMTQSPSSLSASVGDRVTITCRASQGIRNDLGWYQQKPGKAPKLVIYSASTLQSGVPSRFSGSGSGTDFTLSISSLQPDDFATYYCLQDYNYPWTFGQGTKVEIK
modifications: V2L2 VH; V2L2 VL
protection compared to mAb166 at similar doses (P. aeruginosa 6294 (O6); 1 mg/kg, strain 6294, FIG. 13B): significantly more potent protection than mAb166
Bacteria (P. aeruginosa 6294 (O6); [5]): Neg-1+
Hemorrhage, extent in words (P. aeruginosa 6294 (O6); [5]): Extensive
Inflammatory Infiltrate (P. aeruginosa 6294 (O6); [5]): PMN 3+
Involved Lung Surface Area (P. aeruginosa 6294 (O6); [5]): 57%
Bacteria (P. aeruginosa 6294 (O6); [6]): Neg
Inflammatory Infiltrate (P. aeruginosa 6294 (O6); [6]): PMN 2+
Involved Lung Surface Area (P. aeruginosa 6294 (O6); 1.7×10^7 CFU 6294, 0.2 mg/kg, Table 6B): 30%
protection against additional strains (P. aeruginosa 6294 (O6); 6294, V2L2 0.04-5 mg/kg, FIG. 13I): protects against additional Pseudomonas strains
Overall Impression, lung histology (P. aeruginosa 6294 (O6); [5]): Broncho interstitial pneumonia
Overall Impression, lung histology (P. aeruginosa 6294 (O6); [6]): Broncho interstitial pneumonia
effect on survival (P. aeruginosa 6294 (O6); increasing doses of V2L2 24 h before infection, out to 168 hours post-infection, FIG. 13): dose-dependent effect on improved survival
potency in prevention of RBC lysis, V2L2 vs. 29D2 [1]: more potent in prevention of RBC lysis than the 29D2
protection against additional strains [2]: protects against additional Pseudomonas strains
reduction in organ CFU compared to mAb166 at similar doses ([3]; 1 mg/kg, lung, FIG. 14B): significantly greater reduction in organ CFU than mAb166
organ burden / tissue clearance (lung, spleen, kidney CFU) ([3]; 5.25×10^5 cfu 6206, V2L2 0.1 mg/kg, W4-RAD 0.5 mg/kg, combination, 24 h post infection, FIG. 15): effective in lowering organ burden
Inflammatory Infiltrate [3, 7]: PMN 3+
Involved Lung Surface Area [3, 7]: 55%
Overall Impression, lung histology [3, 7]: Broncho interstitial pneumonia
Inflammatory Infiltrate [3, 8]: PMN 2-3+
Involved Lung Surface Area [3, 8]: 40%
survival, in words ([3]; 6206, Bs3-V2L2 0.28 mg/kg, V2L2 0.2 mg/kg 24 h before infection, monitored 120 hours, FIG. 21A): survived, along with those which received the V2L2 control
Overall Impression, lung histology ([3]; BALB/c mice, 9.25×10^5 CFU 6206, 0.2 mg/kg (combination 0.1 mg/kg ea), Table 7): Broncho interstitial pneumonia
clearance in the kidney [3, 9]: little effect on clearance in the kidney
dissemination to lung and spleen [3, 9]: greatly reduced dissemination to both the lung and spleen in a dose-dependent manner
protection in vivo (survival) [4]: provides protection in vivo
